To fix the notation:
B1: Pyruvate dehydrogenase E1 component subunit alpha, somatic form, mitochondrial (Homo sapiens), P08559-1 (parent)
chain: MRKMLAAVSRVLSGASQKPASRVLVASRNFANDATFEIKKCDLHRLEEGPPVTTVLTREDGLKYYRMMQTVRRMELKADQLYKQKIIRGFCHLCDGQEACCVGLEAGINPTDHLITAYRAHGFTFTRGLSVREILAELTGRKGGCAKGKGGSMHMYAKNFYGGNGIVGAQVPLGAGIALACKYNGKDEVCLTLYGDGAANQGQIFEAYNMAALWKLPCIFICENNRYGMGTSVERAAASTDYYKRGDFIPGLRVDGMDILCVREATRFAAAYCRSGKGPILMELQTYRYHGHSMSDPGVSYRTREEIQEVRSKSDPIMLLKDRMVNSNLASVEELKEIDVEVRKEIEDAAQFATADPEPPLEELGYHIYSSDPPFEVRGANQWIKFKSVS
partner: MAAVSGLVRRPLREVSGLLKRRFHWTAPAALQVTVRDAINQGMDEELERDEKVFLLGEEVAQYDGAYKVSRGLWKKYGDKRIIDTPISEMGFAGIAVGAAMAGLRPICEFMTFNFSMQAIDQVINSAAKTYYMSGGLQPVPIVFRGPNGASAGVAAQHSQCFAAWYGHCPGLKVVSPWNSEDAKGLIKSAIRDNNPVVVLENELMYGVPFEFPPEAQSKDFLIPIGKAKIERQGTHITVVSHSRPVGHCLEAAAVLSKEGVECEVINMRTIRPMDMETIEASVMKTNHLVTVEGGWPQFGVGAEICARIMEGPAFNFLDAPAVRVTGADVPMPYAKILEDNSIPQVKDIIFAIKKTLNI

Data on 2 variants can be found in IntAct's records for PubMed 19081061.

The variants in this test derive from B1. To be noted: with PDHB.
Regarding Y118F, the “effect of a mutation on the interaction” value is “with no effect”.
S232A;S300A: the “effect of a mutation on the interaction” value is given as “with no effect”.
